Measurements published in paper PMC10201434, “The DNA replication initiation protein DnaD recognises a specific strand of the Bacillus subtilis chromosome origin” (Nucleic Acids Research, 2021).

Experiments:
DnaD = biological target: T1, DnaD (Bacillus subtilis 168CA, UniProt P39787 1-232); test: fluorescence polarisation; FP: 10 mM HEPES-KOH pH 7.5, 1 mM Mg acetate, 100 mM K glutamate, 20 C, 1.875 nM DNA, DnaD up to 500 nM, 10 min; Bpa crosslinking conditions not in material; settings: protein: recombinant; tags: His14-SUMO tag removed; chain copies: 4; label: fluorescein 5'
T1 sequence: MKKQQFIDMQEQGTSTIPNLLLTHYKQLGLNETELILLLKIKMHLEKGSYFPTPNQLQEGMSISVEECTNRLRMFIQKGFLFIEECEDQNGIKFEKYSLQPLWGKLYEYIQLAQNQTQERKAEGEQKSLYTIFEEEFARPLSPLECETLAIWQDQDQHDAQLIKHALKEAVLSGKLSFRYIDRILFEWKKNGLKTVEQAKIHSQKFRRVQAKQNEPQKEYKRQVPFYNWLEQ

DnaD1-224 = biological target: T2, DnaD1-224 (Bacillus subtilis 168CA, UniProt P39787 1-224); test: as above; settings: protein: recombinant; tags: His14-SUMO tag removed; chain copies: 4; label: fluorescein 5'
T2 sequence: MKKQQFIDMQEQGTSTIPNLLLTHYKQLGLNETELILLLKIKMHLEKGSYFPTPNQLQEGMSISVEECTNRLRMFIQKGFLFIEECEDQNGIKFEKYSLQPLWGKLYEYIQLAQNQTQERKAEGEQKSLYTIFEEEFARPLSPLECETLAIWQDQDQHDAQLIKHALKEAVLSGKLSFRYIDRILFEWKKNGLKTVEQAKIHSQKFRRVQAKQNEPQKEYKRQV

DnaD1-205 = biological target: T3, DnaD1-205 (Bacillus subtilis 168CA, UniProt P39787 1-205); test: as above; settings: protein: recombinant; tags: His14-SUMO tag removed; chain copies: 4; label: fluorescein 5'
T3 sequence: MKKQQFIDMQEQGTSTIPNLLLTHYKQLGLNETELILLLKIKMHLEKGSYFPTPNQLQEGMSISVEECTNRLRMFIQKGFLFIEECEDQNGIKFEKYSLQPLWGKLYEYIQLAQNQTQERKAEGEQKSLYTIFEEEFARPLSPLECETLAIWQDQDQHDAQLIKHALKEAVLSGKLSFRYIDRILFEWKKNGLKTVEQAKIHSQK

[1] = biological target: the molecule itself; test: SEC-MALS; 20°C; 40 mM Tris-HCl pH 8, 500 mM NaCl, 1 mM EDTA, 20 mM imidazole, 2.5% v/v glycerol; 100 μl injected
DnaD F6A = biological target: T4, DnaD F6A (Bacillus subtilis 168CA, UniProt P39787 1-232, F6A); test: fluorescence polarisation; FP: 10 mM HEPES-KOH pH 7.5, 1 mM Mg acetate, 100 mM K glutamate, 20 C, 1.875 nM DNA, DnaD up to 500 nM, 10 min; Bpa crosslinking conditions not in material; settings: protein: recombinant; tags: His14-SUMO tag removed; chain copies: 2; label: fluorescein 5'
T4 sequence: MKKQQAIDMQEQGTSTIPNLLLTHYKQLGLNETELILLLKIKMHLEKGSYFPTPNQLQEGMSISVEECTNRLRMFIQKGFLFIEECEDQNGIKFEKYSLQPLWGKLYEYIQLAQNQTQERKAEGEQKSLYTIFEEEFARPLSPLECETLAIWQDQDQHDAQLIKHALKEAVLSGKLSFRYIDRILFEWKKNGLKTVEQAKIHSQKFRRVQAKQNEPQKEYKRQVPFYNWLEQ

DnaD L22A = biological target: T5, DnaD L22A (Bacillus subtilis 168CA, UniProt P39787 1-232, L22A); test: as above; settings: protein: recombinant; tags: His14-SUMO tag removed; label: fluorescein 5'
T5 sequence: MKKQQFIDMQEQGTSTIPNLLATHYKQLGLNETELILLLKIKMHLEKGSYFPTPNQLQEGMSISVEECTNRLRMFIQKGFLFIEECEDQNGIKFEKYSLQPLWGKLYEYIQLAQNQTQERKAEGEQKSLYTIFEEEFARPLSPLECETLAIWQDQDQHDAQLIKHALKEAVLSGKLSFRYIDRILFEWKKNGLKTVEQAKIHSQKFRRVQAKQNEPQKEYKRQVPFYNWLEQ

[2] = biological target: the molecule itself; test: SEC; Superdex 200 Increase 10/300GL, 4°C; 40 mM Tris-HCl pH 8, 500 mM NaCl, 1 mM EDTA, 20 mM imidazole; 500 μl samples

Binder: TCACTCAAAGGCGGTAATAC (ssDNA) [ssDNA 1 (oCW1036)]
- binding result (DnaD): binds

Binder: TTTTTTTTTTTTTTT (ssDNA) [polyT(15) (oCW1029)]
- binding result (DnaD): binds

Binder: CTCCTCCCTCCTCCCCCC (ssDNA) [TnnT spacing (oCW1495)]
- binding result (DnaD): binds

Binder: TTTTTTTTTTTTTTTTTTTTTTTTTTTTTTTTTTTTTTTT (ssDNA) [polyT(40) (oCW837)]
- binding result (DnaD1-224): binds
- binding result (DnaD1-205): no binding
- binding result (DnaD): binds

Binder: CTCCTCCCCCCTCCTCCC (ssDNA) [TnnT spacing (oCW1492)]
- binding result (DnaD): binds

B1: DnaD^1-205 (truncation lacking the entire C-terminal tail) (domain or fragment, Bacillus subtilis, UniProt P39787 1-205, looked up)
chain: MKKQQFIDMQEQGTSTIPNLLLTHYKQLGLNETELILLLKIKMHLEKGSYFPTPNQLQEGMSISVEECTNRLRMFIQKGFLFIEECEDQNGIKFEKYSLQPLWGKLYEYIQLAQNQTQERKAEGEQKSLYTIFEEEFARPLSPLECETLAIWQDQDQHDAQLIKHALKEAVLSGKLSFRYIDRILFEWKKNGLKTVEQAKIHSQK
notes: DnaD, Bacillus subtilis 168CA, residues 1-205; variant lacking the entire DnaD^CTT; made from pSF17; source: E. coli BL21(DE3)-pLysS, purified (HisTrap, His14-SUMO tag digested, second HisTrap flow-through)
- stoichiometry N [1]: 4

Binder: CTCCTTCCTCCCCCCCCC (ssDNA) [TnnT juxtaposed (oCW1498)]
- binding result (DnaD): binds

Binder: CTCCTCCCCCCCCTCCTC (ssDNA) [polyC with two TnnT (oCW1128)]
- binding result (DnaD F6A): no binding
- binding result (DnaD L22A): no binding
- binding result (DnaD): binds

Binder: CTACTATTACTTCTACTA (ssDNA) [DRE (oCW1039)]
- binding result (DnaD): binds

Binder: CTCCTCCCCTCCTCCCCC (ssDNA) [TnnT spacing (oCW1494)]
- binding result (DnaD): binds

B2: DnaD^1-224 (truncation lacking the DnaB interaction region, the last eight residues) (domain or fragment, Bacillus subtilis, UniProt P39787 1-224, looked up)
chain: MKKQQFIDMQEQGTSTIPNLLLTHYKQLGLNETELILLLKIKMHLEKGSYFPTPNQLQEGMSISVEECTNRLRMFIQKGFLFIEECEDQNGIKFEKYSLQPLWGKLYEYIQLAQNQTQERKAEGEQKSLYTIFEEEFARPLSPLECETLAIWQDQDQHDAQLIKHALKEAVLSGKLSFRYIDRILFEWKKNGLKTVEQAKIHSQKFRRVQAKQNEPQKEYKRQV
notes: DnaD, Bacillus subtilis 168CA, residues 1-224; variant lacking the last eight amino acid residues of the DnaD^CTT; made from pSF17; source: E. coli BL21(DE3)-pLysS, purified (HisTrap, His14-SUMO tag digested, second HisTrap flow-through)
- stoichiometry N [2]: 4

Binder: CTCCTCTCCTCCCCCCCC (ssDNA) [TnnT spacing (oCW1497)]
- binding result (DnaD): binds

Binder: TTTTTTTTTT (ssDNA) [polyT(10) (oCW834)]
- binding result (DnaD): no binding

Binder: CTCCTCCTCCTCCCCCCC (ssDNA) [TnnT spacing (oCW1496)]
- binding result (DnaD): binds

Binder: GTATTACCGCCTTTGAGTGA (ssDNA) [ssDNA 2 (oCW1124)]
- binding result (DnaD): binds

Binder: CTCCTCCCCCTCCTCCCC (ssDNA) [TnnT spacing (oCW1493)]
- binding result (DnaD): binds

Binder: CTCCTCCCCCCCTCCTCC (ssDNA) [TnnT spacing (oCW1491)]
- binding result (DnaD): binds
